Experimental data taken from US20240109974A1 (SHANDONG SIMCERE BIOPHARMACEUTICAL, published 2024).

T1: human TNFR2 on the surface of CHO-TNFR2 cells (human, UniProt P20333 23-461)
T1 construct: whole, on cells
T1 sequence (looked up): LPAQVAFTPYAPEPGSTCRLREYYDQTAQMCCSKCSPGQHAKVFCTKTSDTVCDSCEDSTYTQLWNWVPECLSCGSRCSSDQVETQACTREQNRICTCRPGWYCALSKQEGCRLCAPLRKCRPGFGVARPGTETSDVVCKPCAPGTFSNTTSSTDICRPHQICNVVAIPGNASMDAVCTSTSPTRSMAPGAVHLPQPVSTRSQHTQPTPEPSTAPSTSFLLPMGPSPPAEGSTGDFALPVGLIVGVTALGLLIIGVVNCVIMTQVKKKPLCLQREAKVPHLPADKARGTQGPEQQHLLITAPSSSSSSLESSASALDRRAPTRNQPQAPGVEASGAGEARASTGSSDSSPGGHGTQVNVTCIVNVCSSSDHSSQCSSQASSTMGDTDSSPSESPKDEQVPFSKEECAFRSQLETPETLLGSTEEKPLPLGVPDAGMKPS


Assays:
[1] = target: T1, human TNFR2 on the surface of CHO-TNFR2 …; test: flow cytometry on CHO-TNFR2 cells; area under the MFI fold curve
Protocol: The transfected full-length plasmid of human TNFR2 was purchased from Sino Biological (Cat #HG10417-UT, NCBI Ref Seq: NM_001066.2). The experiment was conducted at a cell density within 80%. The cell medium was discarded; the cells were rinsed with PBS, and digested with 1 ml trypsin for 2 minutes; the digestion was stopped with a Ham's F12 complete medium containing 10% FBS, and then a cell suspension was made. The cell suspension was counted, and then an appropriate amount of cell suspension was centrifuged at 350×g; the supernatant was discarded; a corresponding volume of blocking solution (10% FBS+PBS) at a density of 1×10⁷ cells/ml was added to resuspend the cells, and the mixture was incubated at 4° C. for 30 minutes. After the incubation, the mixture was centrifuged at 350×g to remove the supernatant, and the cells were resuspended in a staining buffer (2% FBS+PBS) to a density of 2×10⁶ cells/ml, and spread onto a 96-well plate, with 50 μl of cell suspension added to each well for later use. The antibody was diluted with PBS for 10-fold gradient dilution from the highest concentration of 20 μg/m (twice the concentration); the diluted antibody was added to the well containing 50 μl of cell suspension, and placed on a microplate shaker for shaking at 500 rpm for 1 minute, so that the antibody was fully mixed with the cells; the mixture was incubated at 4° C. for 1 h. After the incubation, the cells were washed twice with the staining buffer, with 100 μl per well, and centrifuged at 350-g for 5 minutes, and the supernatant was discarded. The PE goat anti-Human IgG Fc antibody (ebioscience, Cat #12-4998-82) was diluted 250-fold with the staining buffer, with a volume of 100 μl per well added to the washed cell wells; the mixture was mixed evenly, and stained at 4° C. for 30 minutes. After the staining, similarly, the cells were washed twice with the staining buffer; finally, the cells were resuspended in 200 μl of staining buffer; signals were detected by a flow cytometer (Thermo Attune NxT). The stronger the signal, the stronger the binding ability of an antibody to TNFR2. The binding curve of an antibody was drawn with antibody concentration as the abscissa and corresponding mean fluorescence intensity (MFI) fold as the ordinate, and fitted with four parameters (GraphPad Prism9) to calculate the EC50 value.

[2] = target: T1, human TNFR2 on the surface of CHO-TNFR2 …; test: competition flow cytometry on CHO-TNFR2 cells, competitor TNFα-biotin; area under the MFI curve; parameters: unit not given beside the values
Protocol: CHO stable cells highly expressing human TNFR2 were used for the experiment (the same as CHO-TNFR2 in Example 4). The CHO-TNFR2 cells were digested, washed twice with DPBS, then stained with Live/Dead (L/D) (20 minutes at room temperature), and plated at a density of 1×10⁵ cells/50 μl/well. A test anti-TNFR2 antibody was diluted to 6 μg/ml with a staining buffer as the starting concentration: the antibody was subjected to 3.33-fold gradient dilution, with a total of 7 concentration points. The diluted antibody was added to the plated cells at 50 μl/well, and the mixture was mixed well by gentle pipetting, and incubated at 4° C. for 30 minutes. Then the diluted 100 ng/ml of human TNFα-biotin was added at 100 μl/well, and the mixture was mixed well by gentle pipetting, and then incubated at 4° C. for 30 minutes. The mixture was washed twice with a staining buffer, and then 0.12 μg/ml PE-streptavidin (BioLegend, Cat #405204) was added at 100 μl/well; the resulting mixture was incubated at 4° C. for 30 minutes. The mixture was washed twice with a staining buffer, and then 150 μl of staining buffer was added to resuspend the cells; signals were detected by a flow cytometer (Thermo Attune NxT). The inhibitory curve of an antibody was drawn with antibody concentration as the abscissa and corresponding MFI value as the ordinate, and fitted with four parameters (GraphPad Prism9) to calculate the IC50 value. The smaller the IC50 value, the stronger the ability of an antibody to inhibit the binding of human TNFα to human TNFR2. The blocking effect of a humanized antibody was normalized to its corresponding human-murine chimeric WT antibody. The higher the percentage value, the better the inhibitory effect of the humanized antibody.

Binder | AUC [1] | AUC [2]
224-Hu1 (antibody, V domains shown, Humanized form of #224; also called VH8 + VL6) VH: QVQLVQSGAEVKKPGASVKVSCKASGFNNKDIYMHWVRQAPGQGLEWIGRIDPATGNTKHDPKFQDRVTMTSDTSTNTVYMELSSLRSEDTAVYYCARSPYGDFGAMDYWGQGTLVTVSS VL: DIQMTQSPSSLSASVGDRVTITCTASSSVSSNYLHWYQQKPGKAPKLWIYSTSNLPSGVPSRFSGSGSGTDFTLTISSLQPEDFATYYCHQYHRSPWTFGQGTKVEIK | 642 | 20300
224-WT (antibody, V domains shown, Human-murine chimeric wild-type molecule; also called human-murine chimeric antibody WT of #224) VH: EVQLQESGPEIVKPGASVKLSCTASGFNNKDIYMHWVKQRPEQGLEWIGRIDPATGNTKHDPKFQDKATLSSDTSSNTAYLQFSSLTSEDTAVYYCAHSPYGDFGAMDYWGQGTTVTVSS VL: DIQMTQSPAIMSASLGERVTMTCTASSSVSSNYLHWYQQKPGSSPKLWIYSTSNLPSGVPARFSGSGSGTSYSLTISSMEAEDAATYYCHQYHRSPWTFGGGTKLEIK | 667 | 
001-WT (antibody, V domains shown, Human-murine chimeric wild-type molecule; also called human-murine chimeric antibody WT of #001) VH: EVQLQESGGGLVQPGGSLNLSCAASGFAFSTYDLSWVRQTPEKRLEWVAYINNGGISTYYSDTVKGRFTISRDNAKNTLYLQMSSLKSEDTAMYYCVRGPFYGSANYFDYWGQGTTVTVSS VL: EIVMTQSPASLSLSVGETVTITCRTSESIYSNLPWYQQKQGKSPQLLVYDATKLAEGVPSRFSGSESGTQYSLKINSLQSEDFGTYYCQHFWVTPWTFGGGTKLEIK | 490 | 
001-Hu5 (antibody, V domains shown, Humanized form of #001; also called VH1 + VL4) VH: EVQLVESGGGLVQPGGSLRLSCAASGFAFSTYDLSWVRQAPGKGLEWVAYINNGGISTYYSDTVKGRFTISRDNAKNTLYLQMNSLRAEDTAVYYCVRGPFYGSANYFDYWGQGTLVTVSS VL: DIQMTQSPSSLSASVGDRVTITCRTSESIYSNLPWYQQKPGKSPKLLVYDATKLAEGVPSRFSGSGSGTDYTLTISSLQPEDFATYYCQHFWVTPWTFGQGTKVEIK | 431 | 10200
001-Hu3 (antibody, V domains shown, Humanized form of #001; also called VH1 + VL3) VH: EVQLVESGGGLVQPGGSLRLSCAASGFAFSTYDLSWVRQAPGKGLEWVAYINNGGISTYYSDTVKGRFTISRDNAKNTLYLQMNSLRAEDTAVYYCVRGPFYGSANYFDYWGQGTLVTVSS VL: DIQMTQSPSSLSASVGDRVTITCRTSESIYSNLPWYQQKPGKAPKLLIYDATKLAEGVPSRFSGSGSGTDYTLTISSLQPEDFATYYCQHFWVTPWTFGQGTKVEIK | 431 | 8810
001-Hu4 (antibody, V domains shown, Humanized form of #001; also called VH2 + VL4) VH: EVQLVESGGGLVQPGGSLRLSCAASGFAFSTYDLSWVRQAPGKGLEWVAYINNGGISTYYSDTVKGRFTISRDNAKNSLYLQMNSLRAEDTAVYYCVRGPFYGSANYFDYWGQGTLVTVSS VL: DIQMTQSPSSLSASVGDRVTITCRTSESIYSNLPWYQQKPGKSPKLLVYDATKLAEGVPSRFSGSGSGTDYTLTISSLQPEDFATYYCQHFWVTPWTFGQGTKVEIK | 452 | 10200
001-Hu1 (antibody, V domains shown, Humanized form of #001; also called VH1 + VL1) VH: EVQLVESGGGLVQPGGSLRLSCAASGFAFSTYDLSWVRQAPGKGLEWVAYINNGGISTYYSDTVKGRFTISRDNAKNTLYLQMNSLRAEDTAVYYCVRGPFYGSANYFDYWGQGTLVTVSS VL: DIQMTQSPSSLSASVGDRVTITCRTSESIYSNLPWYQQKPGKAPKLLLYDATKLAEGVPSRFSGSGSGTDYTLTISSLQPEDFATYYCQHFWVTPWTFGQGTKVEIK | 458 | 8840
001-Hu2 (antibody, V domains shown, Humanized form of #001; also called VH2 + VL2) VH: EVQLVESGGGLVQPGGSLRLSCAASGFAFSTYDLSWVRQAPGKGLEWVAYINNGGISTYYSDTVKGRFTISRDNAKNSLYLQMNSLRAEDTAVYYCVRGPFYGSANYFDYWGQGTLVTVSS VL: DIQMTQSPSSLSASVGDRVTITCRTSESIYSNLPWYQQKPGKSPKLLIYDATKLAEGVPSRFSGSGSGTDFTLTISSLQPEDFATYYCQHFWVTPWTFGQGTKVEIK | 433 | 9000
219-WT (antibody, V domains shown, Human-murine chimeric wild-type molecule) VH: EVQLQESGAELVRPGASVKLSCKASGYSFTNYWMNWVKQRPGQGLEWIGMIHPSDTETRLNQNFKDKATLTVDKSSSTSYMQLSSPTSEDSAVYYCARGEGLGAARSVSMDYWGQGTTVTVSS VL: DILMTQSPSSLSASLGDRVTISCRASQDISNYLNWYQQKPDGTVKVLIYYTAILHSGVPSRFSGSGSGTDYSLTISNLEQEDIATYFCQQGNTLPWTFGGGTKLEIK | 516 | 
219-Hu3 (antibody, V domains shown, also called VH5 + VL5) VH: QVQLVQSGAEVKKPGSSVKVSCKASGYSFTNYWMNWVRQAPGQGLEWMGMIHPSDTETRLNQNFKDRVTITADKSTSTAYMELSSLRSEDTAVYYCARGEGLGAARSVSMDYWGQGTLVTVSS VL: DIQMTQSPSSLSASVGDRVTITCRASQDISNYLNWYQQKPDGTVKLLIYYTAILHSGVPSRFSGSGSGTDYSLTISSLQPEDFATYFCQQGNTLPWTFGQGTKVEIK | 497 | 7590
219-Hu5 (antibody, V domains shown, also called VH7 + VL5) VH: QVQLVQSGAEVKKPGSSVKVSCKASGYSFTNYWMNWVRQAPGQGLEWMGMIHPSDTETRLNQNFKDRVTITVDKSTSTAYMELSSLRSEDTAVYYCARGEGLGAARSVSMDYWGQGTLVTVSS VL: DIQMTQSPSSLSASVGDRVTITCRASQDISNYLNWYQQKPDGTVKLLIYYTAILHSGVPSRFSGSGSGTDYSLTISSLQPEDFATYFCQQGNTLPWTFGQGTKVEIK | 481 | 7260
219-Hu1 (antibody, V domains shown, also called VH3 + VL5) VH: QVQLVQSGAEVKKPGASVKVSCKASGYSFTNYWMNWVRQAPGQRLEWMGMIHPSDTETRLNQNFKDRVTITRDTSASTAYMELSSLRSEDTAVYYCARGEGLGAARSVSMDYWGQGTLVTVSS VL: DIQMTQSPSSLSASVGDRVTITCRASQDISNYLNWYQQKPDGTVKLLIYYTAILHSGVPSRFSGSGSGTDYSLTISSLQPEDFATYFCQQGNTLPWTFGQGTKVEIK | 565 | 7320
219-Hu4 (antibody, V domains shown, also called VH6 + VL5) VH: QVQLVQSGAEVKKPGSSVKVSCKASGYSFTNYWMNWVKQAPGQGLEWIGMIHPSDTETRLNQNFKDKATLTVDKSTSTAYMELSSLRSEDTAVYYCARGEGLGAARSVSMDYWGQGTLVTVSS VL: DIQMTQSPSSLSASVGDRVTITCRASQDISNYLNWYQQKPDGTVKLLIYYTAILHSGVPSRFSGSGSGTDYSLTISSLQPEDFATYFCQQGNTLPWTFGQGTKVEIK | 493 | 7320
219-Hu2 (antibody, V domains shown, also called VH4 + VL5) VH: QVQLVQSGAEVKKPGSSVKVSCKASGYSFTNYWMNWVRQAPGQGLEWMGMIHPSDTETRLNQNFKDKATITADKSTSTAYMELSSLRSEDTAVYYCARGEGLGAARSVSMDYWGQGTLVTVSS VL: DIQMTQSPSSLSASVGDRVTITCRASQDISNYLNWYQQKPDGTVKLLIYYTAILHSGVPSRFSGSGSGTDYSLTISSLQPEDFATYFCQQGNTLPWTFGQGTKVEIK | 534 | 7340
